Results on four molecules are retold here after patent publication US20230212635.

For data set [1], the target named is C3b (UniProt P01024).
Data set [2] concerns the target C3b, P01024.

Chain of C3b, P01024 (P01024 whole entry, looked up): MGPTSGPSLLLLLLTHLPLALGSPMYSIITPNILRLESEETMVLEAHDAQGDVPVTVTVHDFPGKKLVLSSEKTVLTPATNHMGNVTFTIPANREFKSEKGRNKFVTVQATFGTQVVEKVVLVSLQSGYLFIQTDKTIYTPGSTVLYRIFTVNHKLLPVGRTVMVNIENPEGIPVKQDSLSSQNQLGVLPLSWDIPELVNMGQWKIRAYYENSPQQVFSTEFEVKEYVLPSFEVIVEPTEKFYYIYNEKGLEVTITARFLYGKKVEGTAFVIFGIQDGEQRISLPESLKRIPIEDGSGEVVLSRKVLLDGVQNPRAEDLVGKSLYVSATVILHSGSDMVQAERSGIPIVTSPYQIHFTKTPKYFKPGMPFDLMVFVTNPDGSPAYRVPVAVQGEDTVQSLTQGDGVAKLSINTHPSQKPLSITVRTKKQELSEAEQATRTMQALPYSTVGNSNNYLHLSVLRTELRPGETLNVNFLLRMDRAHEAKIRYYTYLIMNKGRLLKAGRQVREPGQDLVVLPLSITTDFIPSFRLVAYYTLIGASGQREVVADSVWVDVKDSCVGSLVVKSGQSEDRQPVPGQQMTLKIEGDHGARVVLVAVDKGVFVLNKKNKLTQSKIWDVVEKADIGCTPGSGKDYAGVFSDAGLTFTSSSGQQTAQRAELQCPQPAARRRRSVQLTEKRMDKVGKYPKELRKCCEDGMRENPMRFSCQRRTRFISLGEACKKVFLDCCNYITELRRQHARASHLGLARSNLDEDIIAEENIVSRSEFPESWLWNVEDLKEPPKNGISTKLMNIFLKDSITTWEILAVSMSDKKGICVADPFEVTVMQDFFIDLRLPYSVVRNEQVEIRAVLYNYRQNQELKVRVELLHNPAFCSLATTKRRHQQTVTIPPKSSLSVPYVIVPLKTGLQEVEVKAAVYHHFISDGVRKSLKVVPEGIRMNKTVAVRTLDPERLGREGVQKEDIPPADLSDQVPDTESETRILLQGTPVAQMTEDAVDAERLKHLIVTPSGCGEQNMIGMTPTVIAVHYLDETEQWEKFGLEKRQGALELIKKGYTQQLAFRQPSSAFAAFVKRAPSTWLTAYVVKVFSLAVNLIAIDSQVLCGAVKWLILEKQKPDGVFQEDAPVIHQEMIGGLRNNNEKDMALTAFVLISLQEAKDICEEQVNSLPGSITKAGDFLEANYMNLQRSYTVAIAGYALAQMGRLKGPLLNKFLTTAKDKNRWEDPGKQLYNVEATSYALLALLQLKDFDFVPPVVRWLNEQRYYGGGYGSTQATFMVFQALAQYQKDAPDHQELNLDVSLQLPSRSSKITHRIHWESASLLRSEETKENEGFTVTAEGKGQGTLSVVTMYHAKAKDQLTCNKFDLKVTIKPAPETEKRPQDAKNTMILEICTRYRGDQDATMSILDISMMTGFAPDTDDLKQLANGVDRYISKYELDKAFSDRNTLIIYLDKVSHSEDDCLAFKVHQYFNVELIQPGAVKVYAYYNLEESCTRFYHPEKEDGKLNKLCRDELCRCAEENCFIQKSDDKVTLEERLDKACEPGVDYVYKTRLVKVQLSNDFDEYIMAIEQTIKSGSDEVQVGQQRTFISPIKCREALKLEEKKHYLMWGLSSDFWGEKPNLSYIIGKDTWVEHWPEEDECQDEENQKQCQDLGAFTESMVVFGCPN

“recombinant mature Complement Factor I from the pDEF-CFI vector in CHO-K1 cells (first Mono S peak)”: the “fluid phase cofactor activity (C3b cleavage with Factor H, SDS-PAGE, Coomassie)” value (“fluid phase cofactor activity” for short) in data set [1] is “At 30 minutes the lowest concentration of fully processed factor I (6.25ng) (right) had cleaved C3b as evidenced by decrease in C3α -110 band and increase in C3α-68,-46, and -43 bands”.

Take “recombinant precursor Complement Factor I (single chain with intact RRKR linker)”: in data set [1], the “fluid phase cofactor activity” value was “by 45 minutes 10ng of precursor CFI showed no demonstrable activity”. Same read-out and setting: under “recombinant mature Complement Factor I produced from the Furin-IRES-CFI vector (VB171219-1127wqz) in HEK293T cells” stands “Enzymatic activity of IRES CFI and serum CFI was demonstrated to be equivilant”.

B1: serum purified Complement Factor I (Complement Technology, A138) (protein)
chain: KVTYTSQEDLVEKKCLAKKYTHLSCDKVFCQPWQRCIEGTCVCKLPYQCPKNGTAVCATNRRSFPTYCQQKSLECLHPGTKFLNNGTCTAEGKFSVSLKHGNTDSEGIVEVKLVDQDKTMFICKSSWSMREANVACLDLGFQQGADTQRRFKLSDLSINSTECLHVHCRGLETSLAECTFTKRRTMGYQDFADVVCYTQKADSPMDDFFQCVNGKYISQMKACDGINDCGDQSDELCCKACQGKGFHCKSGVCIPSQYQCNGEVDCITGEDEVGCAGFASVTQEETEILTADMDAERRRIKSLLPKLSCGVKNRMHIRRKRIVGGKRAQLGDLPWQVAIKDASGITCGGIYIGGCWILTAAHCLRASKTHRYQIWTTVVDWIHPDLKRIVIEYVDRIIFHENYNAGTYQNDIALIEMKKDGNKKDCELPRSIPACVPWSPYLFQPNDTCIVSGWGREKDNERVFSLQWGEVKLISNCSKFYGNRFYEKEMECAGTYDGSIDACKGDSGGPLVCMDANNVTYVWGVVSWGENCGKPEFPGVYTKVANYFDWISYHVGRPFISQYNV
In the case of B1, the “fluid phase cofactor activity” value in data set [2] was “Enzymatic activity of IRES CFI and serum CFI was demonstrated to be equivilant”.
